Experimental data: the supplement of paper PMC10201428
± gives the standard deviation of the averaged measurements.

B1: library; a variant is named by its letters at N, in order (parent)
chain: AATGTTGTTGATGCAACCATAAAGTGATATTTAATAATTATTTATAATCAGCAACTTAACCACAAAACAACCATATATTGATATNTCACAAAACAACCATAANTTGATATTTTTGTGAATCGAGTATTTCAGCAAAACTACTGCAGTAAGAA

Assays:
[1] = variants of: B1; assay: relative integration efficiency (T-LR orientation) vs wild-type transposon end (log2 (normalized fold change)); transposon end mutated: left end; higher = more efficient transposition; details: with VchCAST RNA-guided transposition machinery (E. coli BL21(DE3) host, lacZ target)
How it was run: (§1)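 Co-transformation of E. coli BL21(DE3) combined a pUC57 mini-transposon donor, holding barcoded pools of 1549 left-end or 1849 right-end variants, with a T7-driven plasmid encoding a CRISPR array, tniQ-cas8-cas7-cas6 and tnsA-tnsB-tnsC. After plating with 0.1 mM IPTG at 37°C for 18 h, input plasmids and genomic integration junctions were PCR-amplified and Illumina-sequenced across two biological output replicates, with four reference barcodes. Relative integration efficiency is the normalised, log-transformed output/input barcode fold change.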

[2] = variants of: B1; assay: relative integration efficiency (T-RL orientation) vs wild-type transposon end (log2 (normalized fold change)); transposon end mutated: left end; higher = more efficient transposition; details: with VchCAST RNA-guided transposition machinery (E. coli BL21(DE3) host, lacZ target)
How it was run: as §1

CG T113G
relative integration efficiency (log2) [1]: 0.451 ± 0.17 | relative integration efficiency (log2) [2]: -0.0711 ± 0.12

CG C60T
relative integration efficiency (log2) [1]: 0.161 ± 0.34 | relative integration efficiency (log2) [2]: -0.00379 ± 0.0024

CG C60A
relative integration efficiency (log2) [1]: 0.503 ± 0.15 | relative integration efficiency (log2) [2]: 0.0973 ± 0.034

CG A37C
relative integration efficiency (log2) [1]: 0.0561 ± 0.13 | relative integration efficiency (log2) [2]: -0.222 ± 0.0095

CG A46C A47C
relative integration efficiency (log2) [1]: -0.43 ± 0.42 | relative integration efficiency (log2) [2]: -0.349 ± 0.19

CG A36T A37T T38A T39A
relative integration efficiency (log2) [1]: 0.111 ± 0.38 | relative integration efficiency (log2) [2]: 0.0771 ± 0.077

CG C87G A88T C89G A90T
relative integration efficiency (log2) [1]: 0.251 ± 0.48 | relative integration efficiency (log2) [2]: -0.077 ± 0.18

CG A109C T110G
relative integration efficiency (log2) [1]: -1.25 ± 1.3 | relative integration efficiency (log2) [2]: -0.936 ± 0.53

GG T84A
relative integration efficiency (log2) [1]: -0.365 ± 0.032 | relative integration efficiency (log2) [2]: -0.231 ± 0.12

CG A59C
relative integration efficiency (log2) [1]: 0.591 ± 0.26 | relative integration efficiency (log2) [2]: 0.072 ± 0.14

CG T30G
relative integration efficiency (log2) [1]: -0.765 ± 0.6 | relative integration efficiency (log2) [2]: -0.614 ± 0.37

CG T30C
relative integration efficiency (log2) [1]: 0.128 ± 0.19 | relative integration efficiency (log2) [2]: 0.0623 ± 0.096

CG A73C
relative integration efficiency (log2) [1]: -2.78 ± 1.5 | relative integration efficiency (log2) [2]: -1.14 ± 0.6

CG A73T
relative integration efficiency (log2) [1]: -0.055 ± 0.17 | relative integration efficiency (log2) [2]: -0.536 ± 0.45

CG T12A G13A T31C T32A A77C T86G
relative integration efficiency (log2) [1]: -0.861 ± 0.36 | relative integration efficiency (log2) [2]: -0.573 ± 0.15

TA A22T G24T T31C A33C A70C T76A T84A C87A A102T T111C T113C
relative integration efficiency (log2) [1]: -0.102 ± 0.33 | relative integration efficiency (log2) [2]: -0.168 ± 0.35

CG C87G
relative integration efficiency (log2) [1]: 0.0991 ± 0.48 | relative integration efficiency (log2) [2]: -0.138 ± 0.019

CG C87A
relative integration efficiency (log2) [1]: -0.42 ± 0.76 | relative integration efficiency (log2) [2]: -0.276 ± 0.053

CG T116C
relative integration efficiency (log2) [1]: 0.235 ± 0.36 | relative integration efficiency (log2) [2]: -0.0857 ± 0.085

CG T20A A21T A22T A23T
relative integration efficiency (log2) [1]: -0.732 ± 0.16 | relative integration efficiency (log2) [2]: -0.758 ± 0.34

CG T79G
relative integration efficiency (log2) [1]: -0.323 ± 0.18 | relative integration efficiency (log2) [2]: -0.702 ± 0.47

CG T3A G4C
relative integration efficiency (log2) [1]: -0.231 ± 0.33 | relative integration efficiency (log2) [2]: 0.0698 ± 0.073

CG T12A
relative integration efficiency (log2) [1]: 0.00533 ± 0.2 | relative integration efficiency (log2) [2]: -0.099 ± 0.056

TA A16C G24T T32G A33C A70C T76A T84A C87A A96C T112G T113C
relative integration efficiency (log2) [1]: -0.915 ± 1.2 | relative integration efficiency (log2) [2]: -0.234 ± 0.35

CG A83C T84G
relative integration efficiency (log2) [1]: -0.6 ± 0.69 | relative integration efficiency (log2) [2]: -0.94 ± 0.4

CG T39C A40T T41G T43G A46T A47G C49T G51T A54C C55A
relative integration efficiency (log2) [1]: -4.29 ± 1.2 | relative integration efficiency (log2) [2]: -2.86 ± 0.84

CG A47C
relative integration efficiency (log2) [1]: -0.251 ± 0.89 | relative integration efficiency (log2) [2]: -0.0577 ± 0.11

CG T113G T114G G115T T116G
relative integration efficiency (log2) [1]: -0.271 ± 0.14 | relative integration efficiency (log2) [2]: -0.144 ± 0.053

TA A70C T76A T84A C87A A96C T110A T113A
relative integration efficiency (log2) [1]: 0.233 ± 0.15 | relative integration efficiency (log2) [2]: 0.0312 ± 0.25

TA A22T G24T T31C A33C A70C T76A T84A C87A T104A T110A T113A
relative integration efficiency (log2) [1]: -0.378 ± 0.91 | relative integration efficiency (log2) [2]: -0.553 ± 0.35

CG C60G C61G
relative integration efficiency (log2) [1]: 0.337 ± 0.57 | relative integration efficiency (log2) [2]: -0.185 ± 0.23

CG C87A A88C
relative integration efficiency (log2) [1]: 0.256 ± 0.18 | relative integration efficiency (log2) [2]: -0.00605 ± 0.14

CA A23G G24T A33T A96C T110A T113A
relative integration efficiency (log2) [1]: -0.448 ± 0.74 | relative integration efficiency (log2) [2]: -0.516 ± 0.28

CG T12A G13C
relative integration efficiency (log2) [1]: 0.233 ± 0.21 | relative integration efficiency (log2) [2]: -0.107 ± 0.067

CG T12A G13A
relative integration efficiency (log2) [1]: -0.256 ± 0.34 | relative integration efficiency (log2) [2]: -0.294 ± 0.04

CG A50C G51T C52A A53C
relative integration efficiency (log2) [1]: -0.0404 ± 0.5 | relative integration efficiency (log2) [2]: -0.0487 ± 0.27

CG A81T T82A
relative integration efficiency (log2) [1]: -1.34 ± 0.81 | relative integration efficiency (log2) [2]: -1.03 ± 0.48

TA G24A T30A T76A A77G C87T A102T T111C T113C
relative integration efficiency (log2) [1]: -0.112 ± 0.15 | relative integration efficiency (log2) [2]: -0.456 ± 0.55

CG C17G C18G A19T T20A
relative integration efficiency (log2) [1]: -1.28 ± 0.64 | relative integration efficiency (log2) [2]: -1.56 ± 0.94

TA A16C G24T T32G A33C T76A T78A T84A C87A T104A T110A T113A
relative integration efficiency (log2) [1]: -0.781 ± 0.91 | relative integration efficiency (log2) [2]: -0.706 ± 0.26

CG T104C
relative integration efficiency (log2) [1]: -0.483 ± 0.33 | relative integration efficiency (log2) [2]: -0.257 ± 0.037

CG G80T A81C T82G A83C
relative integration efficiency (log2) [1]: -2.93 ± 1.9 | relative integration efficiency (log2) [2]: -2.64 ± 0.94

CG T108A A109T T110A T111A
relative integration efficiency (log2) [1]: -1.21 ± 0.27 | relative integration efficiency (log2) [2]: -0.957 ± 0.51

CG T3A
relative integration efficiency (log2) [1]: -0.175 ± 0.58 | relative integration efficiency (log2) [2]: -0.148 ± 0.071

CG A73T T74A A75T T76A
relative integration efficiency (log2) [1]: -1.64 ± 0.86 | relative integration efficiency (log2) [2]: -0.919 ± 0.62

CG T48G
relative integration efficiency (log2) [1]: 0.0472 ± 0.93 | relative integration efficiency (log2) [2]: 0.24 ± 0.2

CG A88C C89A
relative integration efficiency (log2) [1]: 0.0423 ± 0.026 | relative integration efficiency (log2) [2]: 0.0174 ± 0.062

CG G7C T8A T9A G10C
relative integration efficiency (log2) [1]: < -10 | relative integration efficiency (log2) [2]: -6.612 ± 0.065

TA G24A T30A T76A T78A T84A C87A A96C T110A T113A
relative integration efficiency (log2) [1]: 0.0142 ± 0.25 | relative integration efficiency (log2) [2]: 0.0999 ± 0.18

CG T112G T113G
relative integration efficiency (log2) [1]: -0.314 ± 0.34 | relative integration efficiency (log2) [2]: -0.443 ± 0.12

CG C18T
relative integration efficiency (log2) [1]: 0.181 ± 0.51 | relative integration efficiency (log2) [2]: 0.16 ± 0.08

CG T12A T30A T31C T32A A77C T86G
relative integration efficiency (log2) [1]: -0.709 ± 0.52 | relative integration efficiency (log2) [2]: -0.451 ± 0.25

CG A67C C68A
relative integration efficiency (log2) [1]: -0.165 ± 0.81 | relative integration efficiency (log2) [2]: -0.108 ± 0.25

CG A1G
relative integration efficiency (log2) [1]: 0.115 ± 0.63 | relative integration efficiency (log2) [2]: 0.133 ± 0.095

CG A1T
relative integration efficiency (log2) [1]: 0.281 ± 0.54 | relative integration efficiency (log2) [2]: 0.063 ± 0.045

CA A23G G24T A33T T104G T113A
relative integration efficiency (log2) [1]: 0.0933 ± 0.62 | relative integration efficiency (log2) [2]: -0.0946 ± 0.2

CG C94A A95C
relative integration efficiency (log2) [1]: -0.623 ± 0.98 | relative integration efficiency (log2) [2]: -0.474 ± 0.4
